Experimental data published in the DeepSol protein solubility set.

Experiment: soluble on expression in E. coli; label from the status in PepcDB or PDB records

| Sequence | soluble on expression in E. coli |
| --- | --- |
| MSYDICIIGSGAGASPIAHQLSKAGAKVLVLEKGPWLTEKEFFKDELTISIHDAYNPKLTDEQHVIEEEYFDENDKPFWQGEKTSDSGWSWWNGNVVGGSSNFMSGYFHRLKPIDFRLKSEFGAISGANVEDWPISYDELEPYYAKVEREVGVSGRVVEHPHQEPRSTDFPYPPIAELPMSSWIDKAAQKIGYHAIPVPRAILSKPAMGRRSCEYSGYCSSYGCASGAKGSGRAALLNNAVASGNCTIQANAKVYKIATDKQGEITGVHYYDKIGRKKSVTAKIYVVACQAVETSRLLLASTGEKFPQGLANNNGQVGKNLLFSGGGTGQGDFNYADLSDKQVGELKQVGPFINRALQDWYQIADKSFTGANAKGQAKGGTIDFLFHQNPIARARGTQWGSDQNGDDKLLWGEDLKQSLKTEFTSYKTLRFEVFNDWLPTDDCFVSLDNEVTDQWGDPVAKVRIGYHDHDLEVGEYLSKKAEKLLEALGAKNVSSSVSGYPSTNLMAGGCRFGNDPKTSVLNKTCQAHEVDNLYVTDGSFMPTGGSVPYTFTIYANAFRVADKIKAHWLTLKSLEHHHHHH | not soluble |
| MKTKTDFLKMKEQGEPITMLTAYDYPSAKLAEEAEVDMILVGDSLGMVVLGYDSTVPVTVEDMIHHTKAVRRGAKETFIVTDMPFMSYHVSLQDTMVNARRIVQESGAHALKVEGAGEVISTIHYLTNAGIPVVAHLGLTPQSVGVLGGYKVQGKDAESAKKLIEDAKKCEEAGAIALVLECVPMQLAELISEQLTIPTIGIGAGQKVDGQVLVYHDLISYGVNRVPKFVKQYTSVQEEIVRGISQYVAEVKTRQFPEEKHSFTMKEEECLALYGGKQS | not soluble |
| MAATITDDIVATVLESIEEKSYEDEKEKAGMIKDEANQFFKDQVYDVAADLYSVAIEIHPTAVLYGNRAQAYLKKELYGSALEDADNAIAIDPSYVKGFYRRATANMALGRFKKALTDYQAVVKVCPNDKDARAKFDECSKIVRRQKFEAAISTDHDKKTVAETLDINAMAIEDSYDGPRLEDKITKEFVLQLIKTFKNQQKLHKKYAFKMLLEFYNYVKSLPTMVEITVPTGKKFTICGDVHGQFYDLCNIFEINGYPSETNPYLFNGDFVDRGSFSVETIFTMIGFKLLYPNHFFMSRGNHESDVMNKMYGFEGEVKAKYTQQMCDMFTETFCWLPLCHLINEKIFVCHGGLFKEDGVTLEDIRKTDRNRQPPDEGIMCDLLWEKNWKNLKILYPDGKINKNSNCQPKTCKNASDPQPINGRSPSKRGVGCQFGPDVTSKWCETNGIEYVVRSHEVKPEGYEMHHNGQCFTVFSAPNYCDQMNNKGAFITITGDNLTPRFTPFDAVPHPKLPPMAYANSLFGFN | not soluble |
| MAHHHHHHMKETLVFATARQQFLQHGYAIFSAAIGASLIERLRPALTASTVARARCFIDVPDIESMLKSKSRLSDPLYTKVMARLQRRKYMLRRYREEKKRRKQLKEVVANFLNGREKEDLTGEELWKLSELLAKEAVSVPGKECRSTIKNDPQMLRAINEYRCNVWMTNKELENIVRDPSFWQPIGAIASDVGGVERPVLFADAPMFREPYGGPFGYHCTAPSIGVKTNGNQPLAVSLLVFTHRPDKQKMPLFVLKGSHRFVQDQYLRYVLPNVLSLPFLPMESHIPEQIKRFNFDSSVVGSPIEGGDAIGPGTVVVLNPHLMIGVGANASTERVAVYKLNLIAENAPPFLKAPSWITAWRSLPREVNFASPVVFPPFYDKTMSTTSAR | not soluble |
| MGSDKIHHHHHHEEEEQKPAYGKIDVAVSVTLPQPESVNTLTRAGGPYTDTDIKNADLLIFDKDAKFMERVKVENDRLVITGTGINFTVRLDATSERRIIHLVANGRSADGTSDRLNFGDITPGMTENAAISSLQTASLEHVDEGESTLLNHVMPLVMWGRFALNGINIVTKAEGVKLLRSTACIQVKKGNGGGNTGLDDFVIEGITVHQGACHGFLAPTDCTGEVNTPVVTNPVTGGIYLDYRKGWVNGAEPSLYIYERNCSASDYMGVVIAARYKGKKGYYKVVMNGNDGSPLNIVRNHRYIVTVVGVNGPGYESPDIAVASAPSNALKVELTDEDTDLPCIVADGQYRMASSNNVFSLYGKTGVTTSATGVDICTVYSSRGIQPVLTLPDDCNWLTNLSAQALGSNKYKITGDFTSAANDAVATTLTMTCDNLSQPVRVSWNPIISDQKDTDSFVLDLVGSTDRNWTVRVLNPTSPGWLFLHPSAASPGALPGDGMVSELSSKYSSHAYLHVAFGASRRGTVQMTSASSGETVARKIVVIQ | not soluble |
| MVQTVLNSVWLWRSVLLRLTFSDSGSFLGQSFLLFSSGFWSVLVEQLEGFSSGVSVQSVLELSNGWRNLQSDGQDLLLSLQSDIFWPFDVSGQVSLWLDSLANTEVLWSRVSQWVLSLVRLSGLSTEWSWSNFLTWSHLFFQLSCSLY | soluble |
| AEGGFLEDAKTDLVLRNYYFNRDFRDHDAGKSLVDEWAQGFILKFSSGYTPGTVGVGLDAIGLFGVKLNSGRGTSNSELLPLHDDGRAADNYGRVGVAAKLRVSASELKIGEMLPDIPLLRYDDGRLLPQTFRGFAVVSRELPGLALQAGRFDAVSLRNSADMQDLSAWSAPTQKSDGFNYAGAEYRFNRERTQLGLWHGQLEDVYRQSYANLLHKQRVGDWTLGANLGLFVDRDDGAARAGEIDSHTVYGLFSAGIGLHTFYLGLQKVGGDSGWQSVYGSSGRSMGNDMFNGNFTNADERSWQVRYDYDFVGLGWPGLIGMVRYGHGSNATTKAGSGGKEWERDVELGYTVQSGPLARLNVRLNHASNRRSFNSDFDQTRLVVSYPLSW | soluble |
| MRELVVIFGLSGSGKSFLASILHEKCGYEWLRSDVIRKQLAGLKPEESAKADYGKGIYTKEITKKVYEEMVKRAKELIDRGKKVVLDATFIKRWQRELVLKNFKDPFFILAFAPEEVIKERLKSRKDVSDADWNIYLKQKEEFEAPEEIDYCVINTNKSKEELESRLKKLLGCQLK | not soluble |
| MKLMKKNTDDGAKIYTPLTLKLYDWWVLGVSNRLAWGCPTKEHLLPHFLEHLGNNHLDIGVGTGFYLTHVPESSLISLMDLNEASLNAASTRAGESKIKHKISHDVFDPYPAALHGQFDSISMFYLLHCLPGNISTKSCVIRNAAQALTDDGTLYGATILGDGVVHNSFGQKLMRIYNQKGIFSNTKDSEEGLTHILSEHFENVKTKVKGTVVMFSASGKK | not soluble |
| GAMGSGGGGEHQHGEEMMAAVPAPDAEGAAGFDEFPIGEDRDVGPLHVGGVYFQPVEMHPAPGAQPSKEEADCHIEADIHANEAGKDLGYGVGDFVPYLRVVAFLQKHGSEKVQKVMFAPMNAGDGPHYGANVKFEEGLGTYKVRFEIAAPSHDEYSLHIDEQTGVSGRFWSEPLVAEWDDFEWKGPQW | soluble |
| MSRETNFNGTKRKRSDVAEKVAQRWKSVRYSAEMENMAPVNSNNDSDDCVIVSESKIIDLTNQEQDLSERIETNDTAKGAVFKLMKSDFYEREDFMGEVEDMITLKDIFGTETLKRSILFSFQYELDFLLRQFHQNVENITIVGQKGTIMPIEARAMDATLAVILKKVKLIEITMPPFASHHTKLIINFYDNGECKIFLPSNNFTSMETNLPQQVCWCSPLLKIGKEGLPVPFKRSLIEYLNSYHLKDIDELITKSVEEVNFAPLSELEFVYSTPSKFQSSGLLSFYNKLEKLSAGTSASDTAKHYLCQTSSIGTSLSRARDENLWTHLMIPLFTGIMSPPAKDTAGRKKAEILPTNSLINEYSQRKIKPYIIFPTEQEFVTSPLKWSSSGWFHFQYLQKKSYYEMLRNKFKVFYKQDPAMVTRRRGTTPAHSKFYMHCATNSAGPCDASQVFKELEWCLYTSANLSQTAWGTVSRKPRNYEAGVLYHSRRLANTRKVTCRTFTRDRRGCAGNPTHVAVPFTLPVIPYDLAEDECFCLARHEND | soluble |
| MGSSHHHHHHSSGLVPRGSHMASMTGGQQMGRGSMIIDDLLTKKIIKPRPLNSHKGTFGRVLLIGGNYPYGGAIIMAALACVNSGAGLVTVATHKDNITALHSHLPEAMAFDMVEKDRLSEQITAADVVLMGPGLAEDDLAQTTFDVVWQAIEPKQTLIIDGSAINLLAKRKPAIWPTKQIILTPHQKEWERLSGLTIPEQIEAATQTALAHFPKETILVAKSHQTKIYQGQKIGHIQVGGPYQATGGMGDTLAGMIAGFVAQFHTDRFEVAAAAVFLHSYIADQLSKEAYVVLPTRISAEITRVMKEMSE | soluble |
| MGSDKIHHHHHHMEGIKMRSVVVKEPGQLNIESRPVPVPGAHEVRVKIAFAGICGSDVHIYHGHNPFAKYPRVIGHEFYGIIDAVGEQVSPARIGERVAVDPVVSCGHCYPCSVGRPNVCTQLQVIGVHRDGGFSDYACVPAKNAWRIPEAISDRQATMVEPFTIAANITAQLQPTAQDIALVYGAGPMGLTIIQALKGVYGVKQVIVVDRIAERLQMARENGADLTLDNTDQPLAEQLAQRQLAPTLVIDAACHPAILQEAILLASPAARIGILGFSGEASTLTQQSITSKEISIFSSRLNSGRFPLVIDWMEKGLIRPEALITHCMPLEQVKEAMEIFANDRKTCCKVLLQLG | not soluble |
| MGSDKIHHHHHHMGSFALPANAQCEAKNDAFQSGEHVMYDLYFNWKFVWVKAGIASLTTNATTYHSEPAYRINLLALGSKRADFFFKMRDTLTCVMGEKLEPRYFRKGAEEGKRYTVDEAWFSYKDGLCFAKQKRTFRDGEVQESEESDSRCIYDMLTILAQARSYDPADYKVGDKIKFPMATGRKVEEQTLIYRGKENVKAENGVTYRCLIFSLVEYDKKGKEKEVITFFVTDDKNHLPVRLDMFLNFGSAKAFLNDVRGHRHPLTSIVK | not soluble |
| GIKDSPVNKVEPNDTLEKVFVSVTKYPDEKRLKGLSKQLDWSVRKIQCWFRHRRNQDKP | soluble |
| MFYYVEILGTLPEMGKAEVEALAELGVGNVEKVDYLLVSGSVKHIGVFERLGLAHEYGLLLYEGDDIKDILDFAKGLEWRNIINGTFAVRRERMRNCMHEVNDLDKKIGGIIHSQGLRVNLSRPDTVVRVYCGNKIWLGIRIREFKGKEFEDRKADRRPFSRPIALPPRIARAMVNLTKATREVLDPFMGTGGMLIEAGLIGLKVYGLDIREDMVEGAKINLEYYGIRDYVVKVGDATKIEEVFPGKTFEAVATDPPYGNSTTLPMDRNELYKRSLESIHSVLEGRLAIAFPADFDARDVAESIGFKVLGRFYQRVHSSLSRYFYVMEV | soluble |
| MTLRYEIFPVTPFRQNCTLIWDDESGEAVLTDVGGDVPFLLQALANRKLTLTAIWLTHGHLDHAGGVVEMLKTHKVPVLGPHPDDEFLLQSLPQTTAQYGFPVSPAFAPNRWLEEGETLTVGRYAFQVLHIPGHTPGHIVFYCAEAELLIAGDVLFYETIGRTDFPRGNHADLINNIRNKLFTLPETVQVVAGHGRMTSIGHEKRHNPFF | not soluble |
| MGSDKIHHHHHHMIPLEHRYAQIEKAITYIDENFRAHPSVDEIAQNVGMSKYHFIRVFKEYAGVTPKQFLHCVTLNYAKEHIKESRSILESSLDIGLSSSSRLHELFVNLIGVTPREWRERGRGVLVTYGFGQTPFGEALIGFTDKGICYLGLMSDNKLEILGRFYELWGEAILEYDEKAAQKYLGYIFDRGEEGSPWNLGTNSQVNAWKALINLSRHLEDRVEGLIPCCGIISRSGAMSGHRWRIERGAALSLLDDIREKGSFGFSDNIDL | not soluble |
